Reference: patent US20160355553A1 (Janssen / Centocor, published 2016)

Experiments:
[1] = biological target: H3 Mini-HA cluster 1 (influenza A virus H3N2, UniProt O11283 17-566); experiment: FACS on HEK293F [D00010 FIG. 8B]
[2] = biological target: H3 Mini-HA cluster 1+2 (influenza A virus H3N2, UniProt O11283 17-566); experiment: FACS on HEK293F [D00010 FIG. 8B]
[3] = biological target: H3 Mini-HA cluster 1+3 (influenza A virus H3N2, UniProt O11283 17-566); experiment: FACS on HEK293F [D00010 FIG. 8B]
[4] = biological target: H3 Mini-HA cluster 1+4 (influenza A virus H3N2, UniProt O11283 17-566); experiment: FACS on HEK293F [D00010 FIG. 8B]
[5] = biological target: H3 Mini-HA cluster 1+6 (influenza A virus H3N2, UniProt O11283 17-566); experiment: FACS on HEK293F [D00010 FIG. 8B]
[6] = biological target: H3 Mini-HA cluster 1+7 (influenza A virus H3N2, UniProt O11283 17-566); experiment: FACS on HEK293F [D00010 FIG. 8B]
[7] = biological target: H3 Mini-HA cluster 1+8 (influenza A virus H3N2, UniProt O11283 17-566); experiment: FACS on HEK293F [D00010 FIG. 8B]
[8] = biological target: H3-mini2 (influenza A virus H3N2, UniProt O11283 17-566); experiment: FACS on HEK293F [D00012 FIG. 9B]
[9] = biological target: H3-mini2-cl9+10 (influenza A virus H3N2, UniProt O11283 17-566); experiment: FACS on HEK293F [D00012 FIG. 9B]
[10] = biological target: H3-mini2-cl9+11 (influenza A virus H3N2, UniProt O11283 17-566); experiment: FACS on HEK293F [D00012 FIG. 9B]
[11] = biological target: H3-mini2-cl9+10+11 (influenza A virus H3N2, UniProt O11283 17-566); experiment: FACS on HEK293F [D00012 FIG. 9B]
[12] = biological target: H3-mini2-cl9+10+11-tri (influenza A virus H3N2); experiment: FACS on HEK293F [D00012 FIG. 9B]
[13] = biological target: H3mini2-cl9+10+11-GCN4 (influenza A virus H3N2); experiment: FACS on HEK293F [D00012 FIG. 9B]
[14] = biological target: H3-mini2-cl9+10+11+12 (influenza A virus H3N2, UniProt O11283 17-566); experiment: FACS on HEK293F [D00012 FIG. 9B]
[15] = biological target: H3-mini2-cl9+10+12 (influenza A virus H3N2, UniProt O11283 17-566); experiment: FACS on HEK293F [D00012 FIG. 9B]
[16] = biological target: H3-mini2-cl9+10+11+12-GCN4 (influenza A virus H3N2, UniProt O11283 17-566); experiment: FACS on HEK293F [D00012 FIG. 9B]
[17] = biological target: H3-mini2-cl9+10+11+12-tri (influenza A virus H3N2, UniProt O11283 17-566); experiment: FACS on HEK293F [D00012 FIG. 9B]
[18] = biological target: H3-mini2-cl9+13 (influenza A virus H3N2, UniProt O11283 17-566); experiment: FACS on HEK293F [D00012 FIG. 9B]
[19] = biological target: H3-mini2-cl9+10+11+13 (influenza A virus H3N2, UniProt O11283 17-566); experiment: FACS on HEK293F [D00012 FIG. 9B]
[20] = biological target: H3-mini2-cl9+10+11+13-GCN4 (influenza A virus H3N2); experiment: FACS on HEK293F [D00012 FIG. 9B]
[21] = biological target: H3-mini2-cl9+10+11+13-tri (influenza A virus H3N2); experiment: FACS on HEK293F [D00012 FIG. 9B]
[22] = biological target: H3-mini3-cl9+10+11+12+14 (influenza A virus H3N2, UniProt O11283 17-566); experiment: FACS on HEK293F [D00012 FIG. 9B]
[23] = biological target: H3-mini4-cl9+10+11+12+14 (influenza A virus H3N2, UniProt O11283 17-566); experiment: FACS on HEK293F [D00012 FIG. 9B]
[24] = biological target: miniHA cluster1+2 (A/Brisbane/59/2007) (influenza A virus H1N1, UniProt A8C8J4 18-565); experiment: FACS on HEK293F
[25] = biological target: miniHA cluster1+3 (A/Brisbane/59/2007) (influenza A virus H1N1, UniProt A8C8J4 18-565); experiment: FACS on HEK293F
[26] = biological target: miniHA cluster1+2+3 (A/Brisbane/59/2007) (influenza A virus H1N1, UniProt A8C8J4 18-565); experiment: FACS on HEK293F
[27] = biological target: H1-PR8-dH1 (influenza A virus H1N1, UniProt P03452 18-565); experiment: FACS on HEK293F

Measured: binding result

B1: CR9114 (antibody, V domains shown)
VH: QVQLVQSGAEVKKPGSSVKVSCKSSGGTSNNYAISWVRQAPGQGLDWMGGISPIFGSTAYAQKFQGRVTISADIFSNTAYMELNSLTSEDTAVYFCARHGNYYYYSGMDVWGQGTTVTVSS
VL: SYVLTQPPAVSGTPGQRVTISCSGSDSNIGRRSVNWYQQFPGTAPKLLIYSNDQRPSVVPDRFSGSKSGTSASLAISGLQSEDEAEYYCAAWDDSLKGAVFGGGTQLTVL
no binding (tested: 5 ug/ml): [1] | [2] | [3] | [4] | [5] | [6] | [7] | [8] | [9] | [10] | [11] | [12] | [13] | [14] | [15] | [16] | [17] | [18] | [19] | [20] | [21] | [22] | [23]

B2: CR8057 (antibody, V domains shown)
VH: EVQLVESGGGLVQPGGSLRLSCAASGFTDSVIFMSWVRQAPGKGLECVSIIYIDDSTYYADSVKGRFTISRHNSMGTVFLEMNSLRPDDTAVYYCATESGDFGDQTGPYHYYAMDV
VL: QSALTQPASVSGSPGQSITISCTGSSGDIGGYNAVSWYQHHPGKAPKLMIYEVTSRPSGVSDRFSASRSGDTASLTVSGLQAEDEAHYYCCSFADSNILI
no binding (tested: 5 ug/ml): [24] | [25] | [26] | [27] | [1] | [2] | [3] | [4] | [5] | [6] | [7] | [8] | [9] | [10] | [11] | [12] | [13] | [14] | [15] | [16] | [17] | [18] | [19] | [20] | [21] | [22] | [23]
